Data set [1] has as its system HeLa Kyoto. Nature of the data set: solubility in G1/S (NP-40 vs SDS abundance) (log2 ratio); higher = more soluble. The following applies: cell cycle stage: G1/S.
The test system of data set [2] is HeLa Kyoto. Nature of the data set: melting temperature (median over replicates), in situ; higher = more thermally stable.
Data set [3] deals with HeLa Kyoto. The data set is described as follows: solubility change mitosis vs G1/S (difference of NP-40 vs SDS log2 ratios) (log2 ratio difference); higher = more soluble in mitosis.
For data set [4], the system named is HeLa Kyoto. Nature of the data set: thermal stability score vs G1/S (z-score of summed log2 fold changes over temperatures); higher = more thermally stable than in G1/S.
Where [5] appears, read: cell cycle stage: early G1 (4.5 h after nocodazole release).
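Wherever melting temperature (median over replicates), in situ is given: HeLa Kyoto cells synchronized by double thymidine or nocodazole block, proteins quantified by TMT10plex mass spectrometry, three independent biological replicates.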
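Wherever solubility change mitosis vs G1/S (difference of NP-40 vs SDS log2 ratios) is given: synchronized HeLa Kyoto cells (double thymidine block for G1/S, nocodazole release for mitosis), protein amounts in NP-40 versus SDS lysates quantified by mass spectrometry, three biological replicates.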
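Wherever solubility in G1/S (NP-40 vs SDS abundance) is given: HeLa Kyoto cells arrested at G1/S by double thymidine block, proteins quantified by TMT10plex mass spectrometry in mild NP-40 versus SDS extracts, three biological replicates.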
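Wherever thermal stability score vs G1/S (z-score of summed log2 fold changes over temperatures) is given: synchronized HeLa Kyoto cells, proteins quantified by TMT10plex mass spectrometry, three biological replicates, mitosis taken 0.5 h after nocodazole release, G1/S directly after double thymidine block.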

“MQGGEPVSTMKVSESEGKLEGQATAVTPNKNSSCGGGISSSSSSRGGSAKGWQYSDHMENVYGYLMKYTNLVTGWQYRFFVLNNEAGLLEYFVNEQSRNQKPRGTLQLAGAVISPSDEDSHTFTVNAASGEQYKLRATDAKERQHWVSRLQICTQHHTEAIGKNNPPLKSRSFSLASSSNSPISQRRPSQNAISFFNVGHSKLQSLSKRTNLPPDHLVEVREMMSHAEGQQRDLIRRIECLPTSGHLSSLDQDLLMLKATSMATMNCLNDCFHILQLQHASHQKGSLPSGTTIEWLEPKISLSNHYKNGADQPFATDQSKPVAVPEEQPVAESGLLAREPEEINADDEIEDTCDHKEDDLGAVEEQRSVILHLLSQLKLGMDLTRVVLPTFILEKRSLLEMYADFMSHPDLFIAITNGATAEDRMIRFVEYYLTSFHEGRKGAIAKKPYNPIIGETFHCSWKMPKSEVASSVFSSSSTQGVTNHAPLSGESLTQVGSDCYTVRFVAEQVSHHPPVSGFYAECTERKMCVNAHVWTKSKFLGMSIGVTMVGEGILSLLEHGEEYTFSLPCAYARSILTVPWVELGGKVSVNCAKTGYSASITFHTKPFYGGKLHRVTAEVKHNITNTVVCRVQGEWNSVLEFTYSNGETKYVDLTKLAVTKKRVRPLEKQDPFESRRLWKNVTDSLRESEIDKATEHKHTLEERQRTEERHRTETGTPWKTKYFIKEGDGWVYHKPLWKIIPTTQPAE [OSBPL11]”: in the data set with HeLa Kyoto [1], the “solubility in G1/S (log2)” value is -0.139. The figures for the melting temperature in the data set with HeLa Kyoto [2] (cell cycle stage: G1/S) and in the data set on HeLa Kyoto [2] (cell cycle stage: mitosis) were 50 °C and 50.4 °C, respectively. Moreover, the “solubility change mitosis (log2)” value in the data set on HeLa Kyoto [3] is -0.0415. Also, the thermal stability score amounted to 0.575 in the data set on HeLa Kyoto [4] (setting [5]) and 1.25 in the data set with HeLa Kyoto [4] (cell cycle stage: mitosis).
For the sequence “MQGPPLLTAAHLLCVCTAALAVAPGPRFLVTAPGIIRPGGNVTIGVELLEHCPSQVTVKAELLKTASNLTVSVLEAEGVFEKGSFKTLTLPSLPLNSADEIYELRVTGRTQDEILFSNSTRLSFETKRISVFIQTDKALYKPKQEVKFRIVTLFSDFKPYKTSLNILIKDPKSNLIQQWLSQQSDLGVISKTFQLSSHPILGDWSIQVQVNDQTYYQSFQVSEYVLPKFEVTLQTPLYCSMNSKHLNGTITAKYTYGKPVKGDVTLTFLPLSFWGKKKNITKTFKINGSANFSFNDEEMKNVMDSSNGLSEYLDLSSPGPVEILTTVTESVTGISRNVSTNVFFKQHDYIIEFFDYTTVLKPSLNFTATVKVTRADGNQLTLEERRNNVVITVTQRNYTEYWSGSNSGNQKMEAVQKINYTVPQSGTFKIEFPILEDSSELQLKAYFLGSKSSMAVHSLFKSPSKTYIQLKTRDENIKVGSPFELVVSGNKRLKELSYMVVSRGQLVAVGKQNSTMFSLTPENSWTPKACVIVYYIEDDGEIISDVLKIPVQLVFKNKIKLYWSKVKAEPSEKVSLRISVTQPDSIVGIVAVDKSVNLMNASNDITMENVVHELELYNTGYYLGMFMNSFAVFQECGLWVLTDANLTKDYIDGVYDNAEYAERFMEENEGHIVDIHDFSLGSSPHVRKHFPETWIWLDTNMGYRIYQEFEVTVPDSITSWVATGFVISEDLGLGLTTTPVELQAFQPFFIFLNLPYSVIRGEEFALEITIFNYLKDATEVKVIIEKSDKFDILMTSNEINATGHQQTLLVPSEDGATVLFPIRPTHLGEIPITVTALSPTASDAVTQMILVKAEGIEKSYSQSILLDLTDNRLQSTLKTLSFSFPPNTVTGSERVQITAIGDVLGPSINGLASLIRMPYGCGEQNMINFAPNIYILDYLTKKKQLTDNLKEKALSFMRQGYQRELLYQREDGSFSAFGNYDPSGSTWLSAFVLRCFLEADPYIDIDQNVLHRTYTWLKGHQKSNGEFWDPGRVIHSELQGGNKSPVTLTAYIVTSLLGYRKYQPNIDVQESIHFLESEFSRGISDNYTLALITYALSSVGSPKAKEALNMLTWRAEQEGGMQFWVSSESKLSDSWQPRSLDIEVAAYALLSHFLQFQTSEGIPIMRWLSRQRNSLGGFASTQDTTVALKALSEFAALMNTERTNIQVTVTGPSSPSPVKFLIDTHNRLLLQTAELAVVQPTAVNISANGFGFAICQLNVVYNVKASGSSRRRRSIQNQEAFDLDVAVKENKDDLNHVDLNVCTSFSGPGRSGMALMEVNLLSGFMVPSEAISLSETVKKVEYDHGKLNLYLDSVNETQFCVNIPAVRNFKVSNTQDASVSIVDYYEPRRQAVRSYNSEVKLSSCDLCSDVQGCRPCEDGASGSHHHSSVIFIFCFKLLYFMELWL [CD109]”, the “solubility in G1/S (log2)” value in the data set with HeLa Kyoto [1] was -0.179. Besides, the melting temperature was 57.6 °C in the data set on HeLa Kyoto [2] (cell cycle stage: G1/S) and 63.2 °C with HeLa Kyoto [2] (cell cycle stage: mitosis). For the same sequence, the “solubility change mitosis (log2)” value in the data set on HeLa Kyoto [3] was -0.257. The thermal stability score with HeLa Kyoto [4] (setting [5]) was -0.942; in the data set on HeLa Kyoto [4] (cell cycle stage: mitosis), 1.58.
As for “MQKASVLLFLAWVCFLFYAGIALFTSGFLLTRLELTNHSSCQEPPGPGSLPWGSQGKPGACWMASRFSRVVLVLIDALRFDFAQPQHSHVPREPPVSLPFLGKLSSLQRILEIQPHHARLYRSQVDPPTTTMQRLKALTTGSLPTFIDAGSNFASHAIVEDNLIKQLTSAGRRVVFMGDDTWKDLFPGAFSKAFFFPSFNVRDLDTVDNGILEHLYPTMDSGEWDVLIAHFLGVDHCGHKHGPHHPEMAKKLSQMDQVIQGLVERLENDTLLVVAGDHGMTTNGDHGGDSELEVSAALFLYSPTAVFPSTPPEEPEVIPQVSLVPTLALLLGLPIPFGNIGEVMAELFSGGEDSQPHSSALAQASALHLNAQQVSRFLHTYSAATQDLQAKELHQLQNLFSKASADYQWLLQSPKGAEATLPTVIAELQQFLRGARAMCIESWARFSLVRMAGGTALLAASCFICLLASQWAISPGFPFCPLLLTPVAWGLVGAIAYAGLLGTIELKLDLVLLGAVAAVSSFLPFLWKAWAGWGSKRPLATLFPIPGPVLLLLLFRLAVFFSDSFVVAEARATPFLLGSFILLLVVQLHWEGQLLPPKLLTMPRLGTSATTNPPRHNGAYALRLGIGLLLCTRLAGLFHRCPEETPVCHSSPWLSPLASMVGGRAKNLWYGACVAALVALLAAVRLWLRRYGNLKSPEPPMLFVRWGLPLMALGTAAYWALASGADEAPPRLRVLVSGASMVLPRAVAGLAASGLALLLWKPVTVLVKAGAGAPRTRTVLTPFSGPPTSQADLDYVVPQIYRHMQEEFRGRLERTKSQGPLTVAAYQLGSVYSAAMVTALTLLAFPLLLLHAERISLVFLLLFLQSFLLLHLLAAGIPVTTPGPFTVPWQAVSAWALMATQTFYSTGHQPVFPAIHWHAAFVGFPEGHGSCTWLPALLVGANTFASHLLFAVGCPLLLLWPFLCESQGLRKRQQPPGNEADARVRPEEEEEPLMEMRLRDAPQHFYAALLQLGLKYLFILGIQILACALAASILRRHLMVWKVFAPKFIFEAVGFIVSSVGLLLGIALVMRVDGAVSSWFRQLFLAQQR [PIGO]”, the “solubility in G1/S (log2)” value in the data set with HeLa Kyoto [1] is -0.193. Also, the melting temperature in the data set with HeLa Kyoto [2] (cell cycle stage: G1/S) turned out to be 53.6 °C; with HeLa Kyoto [2] (cell cycle stage: mitosis), 52.7 °C. Further, in the data set on HeLa Kyoto [3], the “solubility change mitosis (log2)” value turned out to be 0.0305. Moreover, the figures for the thermal stability score with HeLa Kyoto [4] (setting [5]) and in the data set on HeLa Kyoto [4] (cell cycle stage: mitosis) were -0.415 and -0.374, respectively.
With “MQKIKSLMTRQGLKSPQESLSDLGAIESLRVPGKEEFRELREQPSDPQAEQELINSIEQVYFSVDSFDIVKYELEKLPPVLNLQELEAYRDKLKQQQAAVSKKVADLILEKQPAYVKELERVTSLQTGLQLAAVICTNGRRHLNIAKEGFTQASLGLLANQRKRQLLIGLLKSLRTIKTLQRTDVRLSEMLEEEDYPGAIQLCLECQKAASTFKHYSCISELNSKLQDTLEQIEEQLDVALSKICKNFDINHYTKVQQAYRLLGKTQTAMDQLHMHFTQAIHNTVFQVVLGYVELCAGNTDTKFQKLQYKDLCTHVTPDSYIPCLADLCKALWEVMLSYYRTMEWHEKHDNEDTASASEGSNMIGTEETNFDRGYIKKKLEHGLTRIWQDVQLKVKTYLLGTDLSIFKYDDFIFVLDIISRLMQVGEEFCGSKSEVLQESIRKQSVNYFKNYHRTRLDELRMFLENETWELCPVKSNFSILQLHEFKFMEQSRSPSVSPSKQPVSTSSKTVTLFEQYCSGGNPFEIQANHKDEETEDVLASNGYESDEQEKSAYQEYDSDSDVPEELKRDYVDEQTGDGPVKSVSRETLKSRKKSDYSLNKVNAPILTNTTLNVIRLVGKYMQMMNILKPIAFDVIHFMSQLFDYYLYAIYTFFGRNDSLESTGLGLSSSRLRTTLNRIQESLIDLEVSADPTATLTAAEERKEKVPSPHLSHLVVLTSGDTLYGLAERVVATESLVFLAEQFEFLQPHLDAVMPAVKKPFLQQFYSQTVSTASELRKPIYWIVAGKALDYEQMLLLMANVKWDVKEIMSQHNIYVDALLKEFEQFNRRLNEVSKRVRIPLPVSNILWEHCIRLANRTIVEGYANVKKCSNEGRALMQLDFQQFLMKLEKLTDIRPIPDKEFVETYIKAYYLTENDMERWIKEHREYSTKQLTNLVNVCLGSHINKKARQKLLAAIDDIDRPKR [VPS50]”, in the data set on HeLa Kyoto [1], the “solubility in G1/S (log2)” value was -0.0656. Also, the figures for the melting temperature in the data set on HeLa Kyoto [2] (cell cycle stage: G1/S) and in the data set with HeLa Kyoto [2] (cell cycle stage: mitosis) were 50.8 °C and 49.6 °C, respectively. In the data set with HeLa Kyoto [3], the “solubility change mitosis (log2)” value is -0.108. The thermal stability score in the data set with HeLa Kyoto [4] (setting [5]) came out at 0.281; in the data set with HeLa Kyoto [4] (cell cycle stage: mitosis), 0.511.

These data come from the supplement of paper PMC5998384.
